For five sequences, binding results are on record in publication PMC3836757.

Data set [1] deals with RNA polymerase core enzyme;sigma 70 (RpoD) (Escherichia coli;Ehrlichia chaffeensis) (UniProt P0A7Z4+P0A8V2+P0A8T7+P0A800+Q2GG75). Nature of the data set: EMSA. The note with it: 50 mM Tris-acetate pH 8.0, 50 mM K-acetate, 8.1 mM Mg-acetate, 27 mM NH4-acetate, 100 ug/ml BSA, 5% glycerol, 50 ug/ml poly(dI-dC), 20 fmol each probe and RNAP …. On the technique in general: Mobility shift assays separate free from complexed probe on a gel.

Data set [2] concerns the target RNA polymerase core enzyme;sigma 32 (RpoH) (Escherichia coli;Ehrlichia chaffeensis) (UniProt P0A7Z4+P0A8V2+P0A8T7+P0A800+Q2GGG9). Nature of the data set: EMSA. The note with it: 50 mM Tris-acetate pH 8.0, 50 mM K-acetate, 8.1 mM Mg-acetate, 27 mM NH4-acetate, 100 ug/ml BSA, 5% glycerol, 50 ug/ml poly(dI-dC), 20 fmol each probe and RNAP ….

Take “AAGCAAGTCTACTCATATTTTTATTAATTAAGTAGTAAAGTTAACTATAGATTTTATTAAAATTTTTATTCTAATCACTTTAAATATCAATTACTTTTGTTGTAAATTTGAAAGAAATTTTATATTCTAGACTTGCTTTTCTTTATTTCTTTCATTATTCTTAAATTTTTATTATCTTTTATAAAAGGTTTATTAACATG (double strand) [p28-Omp14 promoter probe]”: the binding result in data set [1] was “binds”; in data set [2], “binds more weakly”.

Regarding “TAACTTACTTAAAAAATTAACTACTTAAATATCAACGATGTTTTCAGTATCAAGTCAATTGATTTTTTATGTGTTATGTAAACTGTTACAGAGTAATATAATATTTCTACTGGGTCCTATAAAGTTCTAACCTTGTAAACATTTGTGCAATATGTATTATAAAATTTATTGATTGATACTTGAAATTAGATTTCTTGATATTATATATGATCTTAGCTAGTAGTATCTGATGCTACTGATAATTTATTTTTTTATAGAGGTAG (double strand) [groE promoter probe]”, in data set [2], the binding result is “binds”.

As to “ATTGCAGATTAATTAATAATGCTTTAAGTAATAACAAATAAATTTAGTTGACTATATGAACTAACCTAATATCCTAAATCTTGTTCAGTTATGTAAAATTAGGAGTTAAAATTA (double strand) [hup promoter probe]”, the binding entry in data set [1] is reported as “binds”; in data set [2], “binds more weakly”.

Consider “TTCATAAATTTATGAACTTGTGTTAAATGGGGTTGTAATCTTATGATTTGGTTATTATATCTGTGATTATAGTTTTGATTTTTATGTAAGGGGGCTATTTATGGCTGTTATAGGTATAGATTTAGGTAC (double strand) [dnaK promoter probe]”, for which the binding result in data set [2] is “binds”.

“CTGACGTAATATATTAAATTTTCCTTACAAAAGTTACCGATATTTTATACAAAAATTTATATTCTGACTTGCTTTTATATGACACTTCTACTATTGTTAATTTATTTGTCACTATTAGGTTATATATGAATTACA (double strand) [p28-Omp19 promoter probe]”: the binding entry in data set [1] is on record as “binds”; in data set [2], “binds more weakly”.
